Results on 5 sequences are retold here after the supplement of paper PMC5998384.

Data set [1] concerns HeLa Kyoto. Description: solubility in G1/S (NP-40 vs SDS abundance) (log2 ratio); higher = more soluble. Conditions: cell cycle stage: G1/S.
The subject of data set [2] is HeLa Kyoto. Description: melting temperature (median over replicates), in situ; higher = more thermally stable.
The subject of data set [3] is HeLa Kyoto. Description: solubility change mitosis vs G1/S (difference of NP-40 vs SDS log2 ratios) (log2 ratio difference); higher = more soluble in mitosis.
Data set [4] has as its system HeLa Kyoto. Description: thermal stability score vs G1/S (z-score of summed log2 fold changes over temperatures); higher = more thermally stable than in G1/S.
Where [5] appears, read: cell cycle stage: early G1 (4.5 h after nocodazole release).
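For melting temperature (median over replicates), in situ in this document: HeLa Kyoto cells synchronized by double thymidine or nocodazole block, proteins quantified by TMT10plex mass spectrometry, three independent biological replicates.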
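For solubility change mitosis vs G1/S (difference of NP-40 vs SDS log2 ratios) in this document: synchronized HeLa Kyoto cells (double thymidine block for G1/S, nocodazole release for mitosis), protein amounts in NP-40 versus SDS lysates quantified by mass spectrometry, three biological replicates.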
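For solubility in G1/S (NP-40 vs SDS abundance) in this document: HeLa Kyoto cells arrested at G1/S by double thymidine block, proteins quantified by TMT10plex mass spectrometry in mild NP-40 versus SDS extracts, three biological replicates.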
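For thermal stability score vs G1/S (z-score of summed log2 fold changes over temperatures) in this document: synchronized HeLa Kyoto cells, proteins quantified by TMT10plex mass spectrometry, three biological replicates, mitosis taken 0.5 h after nocodazole release, G1/S directly after double thymidine block.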

As to “MGPLSARLLMQRGRPKSDRLGKIRSLDLSGLELLSEHLDPKLLCRLTQLQELDLSNNHLETLPDNLGLSHLRVLRCANNQLGDVTALCQFPKLEELSLEGNPFLTVNDNLKVSFLLPTLRKVNGKDASSTYSQVENLNRELTSRVTAHWEKFMATLGPEEEAEKAQADFVKSAVRDVRYGPESLSEFTQWRVRMISEELVAASRTQVQKANSPEKPPEAGAAHKPRARLAALKRPDDVPLSLSPSKRACASPSAQVEGSPVAGSDGSQPAVKLEPLHFLQCHSKNNSPQDLETQLWACAFEPAWEEGATSQTVATCGGEAVCVIDCQTGIVLHKYKAPGEEFFSVAWTALMVVTQAGHKKRWSVLAAAGLRGLVRLLHVRAGFCCGVIRAHKKAIATLCFSPAHETHLFTASYDKRIILWDIGVPNQDYEFQASQLLTLDTTSIPLRLCPVASCPDARLLAGCEGGCCCWDVRLDQPQKRRVCEVEFVFSEGSEASGRRVDGLAFVNEDIVASKGSGLGTICLWSWRQTWGGRGSQSTVAVVVLARLQWSSTELAYFSLSACPDKGIVLCGDEEGNVWLYDVSNILKQPPLLPAALQAPTQILKWPQPWALGQVVTKTMVNTVVANASFTYLTALTDSNIVAIWGRM [LRWD1]”, the “solubility in G1/S (log2)” value in the data set with HeLa Kyoto [1] is -0.185. The melting temperature in the data set with HeLa Kyoto [2] (cell cycle stage: G1/S) turned out to be 48 °C; in the data set with HeLa Kyoto [2] (cell cycle stage: mitosis), 49.1 °C. Besides, the “solubility change mitosis (log2)” value with HeLa Kyoto [3] was -0.0674. For the same sequence, the thermal stability score was 1.14 in the data set with HeLa Kyoto [4] (setting [5]) and 1.7 in the data set with HeLa Kyoto [4] (cell cycle stage: mitosis).

On to “MGQGPRSPHKVGRRFPAGGKRGRGAKGSGRPLPGRKRQPWPPPDGRSEPAPDSHPHLSPEALGYFRRALSALKEAPETGEERDLMVHNIMKEVETQALALSTNRTGSEMLQELLGFSPLKPLCRVWAALRSNLRTVACHRCGVHVLQSALLQLPRLLGSAAEEEEEEEEDGKDGPTETLEELVLGLAAEVCDDFLVYCGDTHGSFVVRTLLQVLGGTILESERARPRGSQSSEAQKTPAQECKPADFEVPETFLNRLQDLSSSFLKDIAVFITDKISSFCLQVALQVLHRKLPQFCAHLCNAVIGYLSTRGSSVDGSPLLLFLRDQTSSRLLEQVLLVLEPPRLQSLFEEHLQGQLQTLAAHPIANFPLQRLLDAVTTPELLSPVFEELSPVLEAVLAQGHPGVVIALVGACRRVGAYQAKVLQLLLEAFHCAEPSSRQVACVPLFATLMAYEVYYGLTEEEGAVPAEHQVAMAAARALGDVTVLGSLLLQHLLHFSTPGLVLRSLGALTGPQLLSLAQSPAGSHVLDAILTSPSVTRKLRRRVLQNLKGQYVALACSRHGSRVLDAIWSGAALRARKEIAAELGEQNQELIRDPFGHHVARNVALTTFLKRREAWEQQQGAVAKRRRALNSILED [NOP9]”, for which, in the data set on HeLa Kyoto [1], the “solubility in G1/S (log2)” value was -0.0623. In addition, the melting temperature with HeLa Kyoto [2] (cell cycle stage: G1/S) and in the data set on HeLa Kyoto [2] (cell cycle stage: mitosis) was 49.1 °C throughout. The “solubility change mitosis (log2)” value with HeLa Kyoto [3] came out at 0.2. For the same sequence, the thermal stability score in the data set with HeLa Kyoto [4] (setting [5]) amounted to 0.433; in the data set on HeLa Kyoto [4] (cell cycle stage: mitosis), 0.684.

On to “MGQNDLMGTAEDFADQFLRVTKQYLPHVARLCLISTFLEDGIRMWFQWSEQRDYIDTTWNCGYLLASSFVFLNLLGQLTGCVLVLSRNFVQYACFGLFGIIALQTIAYSILWDLKFLMRNLALGGGLLLLLAESRSEGKSMFAGVPTMRESSPKQYMQLGGRVLLVLMFMTLLHFDASFFSIVQNIVGTALMILVAIGFKTKLAALTLVVWLFAINVYFNAFWTIPVYKPMHDFLKYDFFQTMSVIGGLLLVVALGPGGVSMDEKKKEW [SURF4]”, for which, in the data set with HeLa Kyoto [1], the “solubility in G1/S (log2)” value amounted to 0.185. The melting temperature came out at 57.4 °C with HeLa Kyoto [2] (cell cycle stage: G1/S) and 56.2 °C in the data set on HeLa Kyoto [2] (cell cycle stage: mitosis). For the same sequence, the “solubility change mitosis (log2)” value in the data set on HeLa Kyoto [3] amounted to 0.00821. The thermal stability score is -0.529 with HeLa Kyoto [4] (setting [5]) and -2.05 in the data set with HeLa Kyoto [4] (cell cycle stage: mitosis).

On to “MGRCCFYTAGTLSLLLLVTSVTLLVARVFQKAVDQSIEKKIVLRNGTEAFDSWEKPPLPVYTQFYFFNVTNPEEILRGETPRVEEVGPYTYRELRNKANIQFGDNGTTISAVSNKAYVFERDQSVGDPKIDLIRTLNIPVLTVIEWSQVHFLREIIEAMLKAYQQKLFVTHTVDELLWGYKDEILSLIHVFRPDISPYFGLFYEKNGTNDGDYVFLTGEDSYLNFTKIVEWNGKTSLDWWITDKCNMINGTDGDSFHPLITKDEVLYVFPSDFCRSVYITFSDYESVQGLPAFRYKVPAEILANTSDNAGFCIPEGNCLGSGVLNVSICKNGAPIIMSFPHFYQADERFVSAIEGMHPNQEDHETFVDINPLTGIILKAAKRFQINIYVKKLDDFVETGDIRTMVFPVMYLNESVHIDKETASRLKSMINTTLIITNIPYIIMALGVFFGLVFTWLACKGQGSMDEGTADERAPLIRT [SCARB2]”, for which, in the data set with HeLa Kyoto [1], the “solubility in G1/S (log2)” value stood at 0.3. Further, the melting temperature was 58.5 °C in the data set on HeLa Kyoto [2] (cell cycle stage: G1/S) and 60.2 °C with HeLa Kyoto [2] (cell cycle stage: mitosis). The “solubility change mitosis (log2)” value with HeLa Kyoto [3] was -0.119. Besides, the thermal stability score with HeLa Kyoto [4] (setting [5]) was -2.37; in the data set on HeLa Kyoto [4] (cell cycle stage: mitosis) it was -3.51.

On to “MGRLASRPLLLALLSLALCRGRVVRVPTATLVRVVGTELVIPCNVSDYDGPSEQNFDWSFSSLGSSFVELASTWEVGFPAQLYQERLQRGEILLRRTANDAVELHIKNVQPSDQGHYKCSTPSTDATVQGNYEDTVQVKVLADSLHVGPSARPPPSLSLREGEPFELRCTAASASPLHTHLALLWEVHRGPARRSVLALTHEGRFHPGLGYEQRYHSGDVRLDTVGSDAYRLSVSRALSADQGSYRCIVSEWIAEQGNWQEIQEKAVEVATVVIQPSVLRAAVPKNVSVAEGKELDLTCNITTDRADDVRPEVTWSFSRMPDSTLPGSRVLARLDRDSLVHSSPHVALSHVDARSYHLLVRDVSKENSGYYYCHVSLWAPGHNRSWHKVAEAVSSPAGVGVTWLEPDYQVYLNASKVPGFADDPTELACRVVDTKSGEANVRFTVSWYYRMNRRSDNVVTSELLAVMDGDWTLKYGERSKQRAQDGDFIFSKEHTDTFNFRIQRTTEEDRGNYYCVVSAWTKQRNNSWVKSKDVFSKPVNIFWALEDSVLVVKARQPKPFFAAGNTFEMTCKVSSKNIKSPRYSVLIMAEKPVGDLSSPNETKYIISLDQDSVVKLENWTDASRVDGVVLEKVQEDEFRYRMYQTQVSDAGLYRCMVTAWSPVRGSLWREAATSLSNPIEIDFQTSGPIFNASVHSDTPSVIRGDLIKLFCIITVEGAALDPDDMAFDVSWFAVHSFGLDKAPVLLSSLDRKGIVTTSRRDWKSDLSLERVSVLEFLLQVHGSEDQDFGNYYCSVTPWVKSPTGSWQKEAEIHSKPVFITVKMDVLNAFKYPLLIGVGLSTVIGLLSCLIGYCSSHWCCKKEVQETRRERRRLMSMEMD [PTGFRN]”, for which the “solubility in G1/S (log2)” value in the data set with HeLa Kyoto [1] was 0.0152. Further, the values for the melting temperature in the data set with HeLa Kyoto [2] (cell cycle stage: G1/S) and in the data set on HeLa Kyoto [2] (cell cycle stage: mitosis) were 56.7 °C and 57.1 °C, respectively. In the data set with HeLa Kyoto [3], the “solubility change mitosis (log2)” value was -0.133. For the same sequence, the thermal stability score in the data set with HeLa Kyoto [4] (setting [5]) is -2.55; in the data set with HeLa Kyoto [4] (cell cycle stage: mitosis), -2.42.
